Our source for the stoichiometry N values is publication PMC9687583.

The target in the test is T1, Human C-C motif ligand 16 (CCL16) (human), O15467.
T1 chain: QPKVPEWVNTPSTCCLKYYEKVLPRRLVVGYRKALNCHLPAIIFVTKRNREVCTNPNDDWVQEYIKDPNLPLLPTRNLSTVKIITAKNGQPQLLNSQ
Kind of test: SEC; HiLoad 26/60 Superdex 75 pg; 50 mM sodium dihydrogen phosphate, 500 mM sodium chloride, 10% (v/v) glycerol, pH 8.0; apparent mass after calibration with standard proteins in the same buffer. The settings on record: remark: other sources report otherwise. A general note: Size exclusion chromatography separates by hydrodynamic size, large species first.

B1: Human C-C motif ligand 16 (CCL16), O15467 24-120 (natural protein)
chain: T1 chain
modifications: here or on the partner: two intramolecular disulphide bonds (confirmed by CE-MS and electron density); two intramolecular disulphide bonds (confirmed by CE-MS and electron density)
One may read the stoichiometry N as a count of units in the complex or per binding partner. Consider B1, for which the stoichiometry N was 2.
